Results from PMC2825239.

B1: CYP75A8 (Catharanthus roseus) (protein)
chain: MALEKLVLFDFLAAISILILVQKFIQIVFLRSSSRIRLPPGPKGWPIIGALPYLGTMPHSILANMAKKYGPIMYLKLGTNGMVVASTPDAVKAFLRTLDMNFSNRPIDAGATHLAYNAQDMVFAHYGPKWKLLRKLSNLHMLGGKALENWSNVRATELGYMLQAMYESSRKGETVVVPEMLTYAMANMIGQVILSRRVFVTKSLESNEFKDMVVELMTTAGYFNIGDFIPSIAWMDLQGIERGMKRLHKKFDALLTKMLEEHKSSSHKRKEKPDFLDYVLANRDNSEGERLTTTNIKALLLNLFTAGTDTSSSVIEWAISEMLKNPTILKRAQEEMDQVIGRNRRLMESDIPKLPYLQAICKETFRKHPSTPLNLPRIAQKDCQVNGYYIPKGTRLSVNIWAIGRDPNVWENPLEFNPDRFLSGKMAKIEPRGNDFELIPFGAGRRICAGTRMGIVLVEYILGTLVHSFDWKLPFDDINELNMDESFGLALQKAVPLVAMVSPRLPINAYSP
B2: CYP75A31 (Solanum lycopersicum) (protein)
chain: MALRINELFVAAIIYIIVHIIISKLITTVRERGRRLPLPPGPTGWPVIGALPLLGSMPHVALAKMAKKYGPIMYLKVGTCGMVVASTPNAAKAFLKTLDINFSNRPPNAGATHLAYNAQDMVFAPYGPRWKLLRKLSNLHMLGGKALENWANVRANELGHMLKSMFDASQDGECVVIADVLTFAMANMIGQVMLSKRVFVEKGVEVNEFKNMVVELMTVAGYFNIGDFIPKLAWMDIQGIEKGMKNLHKKFDDLLTKMFDEHEATSNERKENPDFLDVVMANRDNSEGERLSTTNIKALLLNLFTAGTDTSSSVIEWALAEMMKNPKIFKKAQQEMDQVIGKNRRLIESDIPNLPYLRAICKETFRKHPSTPLNLPRVSSEPCTVDGYYIPKNTRLSVNIWAIGRDPDVWENPLEFTPERFLSGKNAKIEPRGNDFELIPFGAGRRICAGTRMGIVVVEYILGTLVHSFDWKLPNNVIDINMEESFGLALQKAVPLEAMVTPRLSLDVYRC

Substrate: O=C1C[C@@H](c2ccc(O)cc2)Oc2cc(O)cc(O)c21
Experiment: cells, lysate or membranes
Conditions: NADPH 1.0 mM, 0.1 M sodium phosphate pH 7.0, 27°C (general assay conditions)

| Protein | Km (ATR1 reductase yeast expression system, assay conditions not separately printed) [µM] | Km (ATR1 reductase) [µM] |
| --- | --- | --- |
| B1 | 0.83 |  |
| B2 |  | 1.20 |
